Assay results as given in paper PMC9884274.

Biological target: WT Atezolizumab scFv-His6, purified
Assay: mass photometry; Refeyn TwoMP, room temperature, 1X PBS; PD-L1 at 7.4, 18.5 and 74 nM; each scFv at 100 nM

For WT Atezolizumab scFv-His6, purified, which stoichiometry N is on record?
Its stoichiometry N is 2.
